From US20140322218A1 (Amgen, published 2014) come the findings set out here.

T1: ckCDH19(1-43)::FLAG::ckCDH19(44-776), on 293T cells (chicken)
T1 construct: Entry holds leader (1-43), Flag tag and CDH19 part; leader left out; also called Ck EC1-5
T1 chain: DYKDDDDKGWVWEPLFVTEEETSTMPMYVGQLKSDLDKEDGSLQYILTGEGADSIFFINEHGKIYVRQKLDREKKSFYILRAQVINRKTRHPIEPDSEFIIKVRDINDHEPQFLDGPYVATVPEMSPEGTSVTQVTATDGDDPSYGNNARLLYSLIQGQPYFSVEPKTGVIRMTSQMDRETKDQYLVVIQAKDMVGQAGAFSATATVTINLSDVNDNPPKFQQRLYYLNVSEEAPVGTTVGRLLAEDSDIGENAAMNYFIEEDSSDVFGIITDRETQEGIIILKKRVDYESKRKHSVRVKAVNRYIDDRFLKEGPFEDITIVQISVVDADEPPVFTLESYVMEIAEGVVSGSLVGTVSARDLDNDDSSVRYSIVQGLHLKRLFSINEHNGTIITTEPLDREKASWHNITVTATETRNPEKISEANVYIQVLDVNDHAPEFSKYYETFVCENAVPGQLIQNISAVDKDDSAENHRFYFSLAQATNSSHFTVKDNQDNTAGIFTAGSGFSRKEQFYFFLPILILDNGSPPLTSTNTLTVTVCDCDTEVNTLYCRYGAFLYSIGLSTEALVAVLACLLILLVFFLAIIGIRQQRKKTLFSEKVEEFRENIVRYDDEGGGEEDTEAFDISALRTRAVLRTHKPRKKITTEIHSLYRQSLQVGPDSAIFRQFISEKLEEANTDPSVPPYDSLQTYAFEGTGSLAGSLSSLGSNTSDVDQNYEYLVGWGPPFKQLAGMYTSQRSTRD

T2: rhCDH19(1-43)::FLAG::rhCDH19(44-772), on 293T cells (rhesus macaque, UniProt Q9H159 44-772 (human entry))
T2 construct: Entry holds leader (1-43), Flag tag and CDH19 part; leader left out; also called Rh EC1-5
T2 chain: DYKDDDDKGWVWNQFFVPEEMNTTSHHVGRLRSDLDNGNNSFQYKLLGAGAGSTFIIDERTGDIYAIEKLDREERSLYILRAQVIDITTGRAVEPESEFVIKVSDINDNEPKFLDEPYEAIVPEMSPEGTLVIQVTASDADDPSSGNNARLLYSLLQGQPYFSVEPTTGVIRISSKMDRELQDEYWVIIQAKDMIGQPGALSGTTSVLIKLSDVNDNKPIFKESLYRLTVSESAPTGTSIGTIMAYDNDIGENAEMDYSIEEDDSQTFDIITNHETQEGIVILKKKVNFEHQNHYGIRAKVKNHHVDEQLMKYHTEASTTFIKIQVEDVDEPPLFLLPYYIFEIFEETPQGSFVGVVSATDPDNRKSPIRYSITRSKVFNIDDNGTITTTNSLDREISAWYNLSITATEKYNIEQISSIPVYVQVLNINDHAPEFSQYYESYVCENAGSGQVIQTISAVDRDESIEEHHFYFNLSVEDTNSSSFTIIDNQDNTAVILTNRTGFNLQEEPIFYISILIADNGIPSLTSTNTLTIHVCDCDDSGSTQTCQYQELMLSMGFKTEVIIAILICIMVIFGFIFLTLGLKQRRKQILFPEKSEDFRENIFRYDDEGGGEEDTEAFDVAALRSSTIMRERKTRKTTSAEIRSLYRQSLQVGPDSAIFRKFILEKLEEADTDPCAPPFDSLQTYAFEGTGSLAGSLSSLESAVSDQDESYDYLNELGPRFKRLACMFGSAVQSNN

T3: raCDH19(1-43)::FLAG::raCDH19(44-770), on 293T cells (rat)
T3 construct: Entry holds leader (1-43), Flag tag and CDH19 part; leader left out; also called Ra EC1-5
T3 chain: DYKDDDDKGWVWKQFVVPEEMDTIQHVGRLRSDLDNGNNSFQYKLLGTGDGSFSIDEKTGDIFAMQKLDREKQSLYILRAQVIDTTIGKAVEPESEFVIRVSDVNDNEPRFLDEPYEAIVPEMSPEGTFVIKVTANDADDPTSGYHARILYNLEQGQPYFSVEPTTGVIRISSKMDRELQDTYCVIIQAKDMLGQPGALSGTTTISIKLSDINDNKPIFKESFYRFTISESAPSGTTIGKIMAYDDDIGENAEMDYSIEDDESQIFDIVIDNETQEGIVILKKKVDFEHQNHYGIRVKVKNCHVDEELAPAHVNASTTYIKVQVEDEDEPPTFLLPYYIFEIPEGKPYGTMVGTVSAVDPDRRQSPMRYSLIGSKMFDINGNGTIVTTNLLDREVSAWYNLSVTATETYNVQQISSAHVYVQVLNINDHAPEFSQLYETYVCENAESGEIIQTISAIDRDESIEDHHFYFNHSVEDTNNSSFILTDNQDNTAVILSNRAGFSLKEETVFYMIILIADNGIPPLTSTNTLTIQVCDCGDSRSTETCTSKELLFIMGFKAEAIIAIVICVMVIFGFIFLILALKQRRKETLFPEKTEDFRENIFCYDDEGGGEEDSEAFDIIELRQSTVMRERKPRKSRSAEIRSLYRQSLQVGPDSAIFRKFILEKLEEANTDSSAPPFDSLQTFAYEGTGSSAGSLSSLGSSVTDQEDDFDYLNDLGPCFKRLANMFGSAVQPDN

B1: hu anti-<huCDH19> 25F8.1 (1-469)(F90Y) VH::huIgG1z / 25F8.1 (1-235)(K45Q,S102A,D111E) VL::huLLC-C2 (Ab ID 14096) (antibody, V domains shown)
VH: QVQLVQSGAEVKKPGASVKVSCKASGYTFTSYYIHWVRQAPGQGLEWMGIINPSGGSTRYAQKFQGRVTMTRDTSTSTVYMELSSLRSEDTAVYYCARGGIQLWLHFDYWGQGTLVTVSS
VL: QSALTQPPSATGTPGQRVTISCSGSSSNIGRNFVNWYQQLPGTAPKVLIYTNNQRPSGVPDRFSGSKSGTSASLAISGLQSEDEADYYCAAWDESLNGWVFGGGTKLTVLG
notes: Engineered variant of 25F8
B2: hu anti-<huCDH19> 26D1.1 VH::huIgG1z / 26D1.1 VL::huLLC-C2 (Ab ID 13882) (antibody, V domains shown)
VH: B1 VH with G26R, I34M, H35S, N52H, S57D, R59T, R72G, Q102K
VL: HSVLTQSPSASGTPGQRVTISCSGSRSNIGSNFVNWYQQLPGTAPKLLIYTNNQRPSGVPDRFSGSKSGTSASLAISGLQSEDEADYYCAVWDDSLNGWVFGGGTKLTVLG
B3: anti-CDH19 antibody 2G6 (Ab ID 13588) (antibody, human IgG1, lambda, V domains shown)
VH: QVQLVESGGGVVQPGRSLRLSCAASGFTFSSYGMHWVRQAPGKGLEWVAFIWYDGSNKYYADSVKDRFTISRDNSKNTLYLQMKSLRAEDTAVYYCARRAGIIGTIGYYYGMDVWGQGTTVTVSS
VL: SYELTQPPSVSVSPGQTASITCSGDRLGEKYTCWYQQRPGQSPLLVIYQDTKRPSGIPERFSGSNSGNTATLTISGTQAMDEADYYCQAWDSSTVVFGGGTKLTVLG
B4: hu anti-<huCDH19> 23A10.3 (1-474)(L92Q) VH::huIgG1z / 23A10.3 (1-231)(C42S) VL::huLLC-C2 (Ab ID 14077) (antibody, V domains shown)
VH: B3 VH with S31R, M34I, F50V, D66G, K84N, T91S, I103P, I106T
VL: B3 VL with T32V, C33S, R38K, L44I, T51N, R53W
notes: Engineered variant of 23A10
B5: hu anti-<huCDH19> 4B10 VH::huIgG1z / 4B10 VL::huKLC (Ab ID 13590) (antibody, V domains shown)
VH: QVQLVESGGGVVQPGRSLRLSCAASGFTFSSYDMHWVRQAPGKGLEWVAVISYDGTNEYYADSVKGRFTISRDTSKNTLYLQMNSLRAEDTAVYYCARERYFDWSFDYWGQGTLVSVSS
VL: EIVLTQSPGTLSLSPGERATLSCRASQSVSNTYLAWYHQRPGQAPRLLIYGASSRATGIPDRFSGSGSGTDFALTISSLEPEDFAVYYCQQYSNSWTFGQGTKVEIKR
B6: anti-CDH19 antibody 4A2 (Ab ID 13592) (antibody, human IgG1, kappa, V domains shown)
VH: QVQLQESGPGLVKPSQTLSLTCTVSGGSISSSGYYWSWIRQHPGKGLEWIGYIYYTGSAYYNPSLKSRVTISVDTSKNQFSLKLSSVTAADTAVYYCARDGSSGWYFQYWGQGTLVTVSS
VL: EIVLTQSPGTLSLSPGERATLSCRASRNISSSYLAWYQQKPGQAPRLLIYGPSSRATGIPDRFSGSGSGTDFTLTISRLEPEDFTVYYCQQYGSSFTFGPGTKVDIKR
B7: hu anti-<huCDH19> 4A9 VH::huIgG1z / 4A9 VL::huLLC-C1 (Ab ID 13589) (antibody, V domains shown)
VH: QVQLQESGPGLVKPSETLSLTCTVSGGSISGYYWSWIRQPPGKGLEWFAYFSYSGSTNYNPSLKSRVTLSVDTSKNQFSLKLSSVTAADTAVYYCARNWAFHFDFWGQGTLVTVSS
VL: QSVLTQPPSVSGAPGQRVTISCTGSSSNIGTGYAVHWYQQFPGTAPKLLIYGNNNRPSGVPDRFSGSKSGTSASLAITGLQAEDEADYYCQSYDSRLSGWVFGGGTKLTVLG
notes: Recombinant fully human IgG1

Substitutions are numbered along the chain they refer to. In names and notes the source's numbering stands.

The first test addresses T1, ckCDH19(1-43)::FLAG::ckCDH19(44-776), …. Kind of test: FACS, transfected 293T. Background: A flow cytometer gives signals particle by particle.
Procedure: (§1) The following binding assay was completed in presence of 2 mM CaCl2. […] Cells were then washed one time and the amount of cell associated Alexa647-labelled Ab was quantitated by flow cytometry. The experiments included mock transfected controls.
Take B1: the binding result is “no binding (tested: 5 ug/ml)”.

For the molecule B2, the binding result was “no binding (tested: 5 ug/ml)”.

With B3, the binding result is reported as “no binding (tested: 5 ug/ml)”.

For B4, the binding result was “no binding (tested: 5 ug/ml)”.

In the case of B5, the binding result is listed as “no binding (tested: 5 ug/ml)”.

Regarding B6, the binding result was “no binding (tested: 5 ug/ml)”.

As to B7, the binding result was “no binding (tested: 5 ug/ml)”.

A further test concerns the target T2, rhCDH19(1-43)::FLAG::rhCDH19(44-772), …. The experiment in a line: FACS, transfected 293T.
Procedure: as §1
In the case of B1, the binding result was “binds”.

B2: the binding result is listed as “binds”.

On to B3, for which the binding result is given as “binds”.

Take B4: the binding result is given as “binds”.

B5: the binding result is on record as “binds”.

For B6, the binding result is on record as “binds”.

For the molecule B7, the binding result is “binds”.

Another test concerns the target T3, raCDH19(1-43)::FLAG::raCDH19(44-770), …. Kind of test: FACS, transfected 293T.
Procedure: as §1
Take B1: the binding result is on record as “no binding (tested: 5 ug/ml)”.

Turning to B2, the binding result is recorded as “no binding (tested: 5 ug/ml)”.

On to B3, for which the binding result is “binds”.

Regarding B4, the binding result was “binds”.

For the molecule B5, the binding result is reported as “binds”.

On to B7, for which the binding result was “no binding (tested: 5 ug/ml)”.
